This assay has as its target scFv-L-Aff, heterobivalent fusion protein of anti-hapten scFv (clone J42) and anti-HER2 affibody (Z_(HER2:477)). Put plainly: SPR.

Numbered stars: 1 amine (or outer) side, 2 acyl side, 3 side chain; on linkers, the order of the positions; unused ones are H or OH. Suc = O=C(CCC(=O)[*:2])[*:1]

B1: hapten peptide, histamine-succinyl-GSYK (peptide)
peptide: {histamine-Suc}-GSYK-NH2
Molecule B1 yielded a percent inhibition of the binding of scFv-L-Aff to immobilised hapten of 84%.
